Two molecules from PMC6477676, “Staufen2-mediated RNA recognition and localization requires combinatorial action of multiple domains” can be followed below.

One data set has as its target T1, mStau2 dsRBD1-2 E15A (Mus musculus, UniProt Q8CJ67 8-181, E15A).
T1 sequence: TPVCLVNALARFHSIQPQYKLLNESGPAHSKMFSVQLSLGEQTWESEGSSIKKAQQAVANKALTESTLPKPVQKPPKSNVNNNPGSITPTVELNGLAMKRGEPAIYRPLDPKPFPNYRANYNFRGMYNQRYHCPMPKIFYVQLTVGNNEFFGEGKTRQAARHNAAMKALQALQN
As to the kind of experiment: SPR; Hill n 1; SPR: HBS-EP (10 mM HEPES pH 7.4, 150 mM NaCl, 3 mM EDTA, 0.005% P20); EMSA: 5 nM RNA, protein buffer (40 mM Bis-Tris pH 7, 150 mM NaCl, 2 mM DTT presumed), 4% glycerol, 30 ug/mL yeast tRNA, RT; NMR: 150 mM NaCl, 20 mM Na phosphate pH 7.0, 5 mM DTT, 298 K. Conditions: protein: recombinant; label: 5' 32P (EMSA); biotin (SPR); hairpin, 18 bp stem. Background: SPR reads the build-up and loss of mass on a sensor chip optically.

The target of data set [1] is T2, mStau2 dsRBD1-2 H36A (Mus musculus, UniProt Q8CJ67 8-181, H36A).
T2 sequence: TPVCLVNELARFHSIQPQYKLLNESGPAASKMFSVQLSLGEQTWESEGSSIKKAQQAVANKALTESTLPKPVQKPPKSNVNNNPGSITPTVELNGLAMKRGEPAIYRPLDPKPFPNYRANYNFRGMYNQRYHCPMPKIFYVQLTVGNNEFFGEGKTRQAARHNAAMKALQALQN
Described as above. The note with it: protein: recombinant; label: 5' 32P (EMSA); biotin (SPR); hairpin, 18 bp stem. On the technique in general: Mobility shift assays separate free from complexed probe on a gel.

Data set [2] concerns the target T2, mStau2 dsRBD1-2 H36A. Briefly: SPR; Hill n 0.9; SPR: HBS-EP (10 mM HEPES pH 7.4, 150 mM NaCl, 3 mM EDTA, 0.005% P20); EMSA: 5 nM RNA, protein buffer (40 mM Bis-Tris pH 7, 150 mM NaCl, 2 mM DTT presumed), 4% glycerol, 30 ug/mL yeast tRNA, RT; NMR: 150 mM NaCl, 20 mM Na phosphate pH 7.0, 5 mM DTT, 298 K. Conditions: protein: recombinant; label: 5' 32P (EMSA); biotin (SPR); imperfect hairpin, 26 bp with two bulges.

The next data set concerns the target T3, mStau2 dsRBD1-2 K59A (Mus musculus, UniProt Q8CJ67 8-181, K59A).
T3 sequence: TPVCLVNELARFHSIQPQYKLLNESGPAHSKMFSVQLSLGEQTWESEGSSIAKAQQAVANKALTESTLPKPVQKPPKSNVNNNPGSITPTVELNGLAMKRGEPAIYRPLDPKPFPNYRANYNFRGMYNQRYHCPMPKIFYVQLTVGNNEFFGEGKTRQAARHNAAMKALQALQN
The data set is described as above. The note with it: protein: recombinant; label: 5' 32P (EMSA); biotin (SPR); imperfect hairpin, 26 bp with two bulges.

For another data set, the target named is T4, mStau2 dsRBD1-2 F40A (Mus musculus, UniProt Q8CJ67 8-181, F40A).
T4 sequence: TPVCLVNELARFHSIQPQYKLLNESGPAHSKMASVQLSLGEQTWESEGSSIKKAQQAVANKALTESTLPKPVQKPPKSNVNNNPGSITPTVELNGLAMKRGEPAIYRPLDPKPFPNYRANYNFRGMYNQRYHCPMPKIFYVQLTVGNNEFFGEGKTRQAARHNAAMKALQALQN
As to the kind of experiment: SPR; Hill n 1; SPR: HBS-EP (10 mM HEPES pH 7.4, 150 mM NaCl, 3 mM EDTA, 0.005% P20); EMSA: 5 nM RNA, protein buffer (40 mM Bis-Tris pH 7, 150 mM NaCl, 2 mM DTT presumed), 4% glycerol, 30 ug/mL yeast tRNA, RT; NMR: 150 mM NaCl, 20 mM Na phosphate pH 7.0, 5 mM DTT, 298 K. The note with it: protein: recombinant; label: 5' 32P (EMSA); biotin (SPR); imperfect hairpin, 26 bp with two bulges.

The Kd is the concentration at which binding is half-saturated. Regarding GGUAUAUACAUGCACAUGCAAUUUGUGUAUGUGUAUGUAUAUA (structured_RNA) [SRS2+5], the values for the equilibrium dissociation constant (Kd) with mStau2 dsRBD1-2 E15A and with mStau2 dsRBD1-2 H36A [1] were 132 ± 31 nM and 701 ± 386 nM, respectively.

B1: SRS* (SRS3) (structured_RNA)
RNA: GGUAUGUGUGAAUGUGCAUGAAUAUAUAUAUAUAUGCAUAUAUAUAUUUGUAUAUGUUCACACAUG
For the molecule B1, the values for the Kd in the data set with mStau2 dsRBD1-2 H36A [2], with mStau2 dsRBD1-2 K59A and with mStau2 dsRBD1-2 F40A were 499 ± 149 nM, 624 ± 142 nM and 769 ± 427 nM, respectively.
